Five sequences from the supplement of paper PMC11246515 can be followed below.

The data set can be described thus: total protein half-life in vivo (active degradation + dilution); higher = more stable protein.
Where [1] appears, read: E. coli NCM3722 delta-clpP delta-lon delta-hslV, growth: N-lim chemostat, doubling time 6 h.
[2] abbreviates: wild type E. coli NCM3722, growth: P-lim chemostat, doubling time 12 h.
The mark [3] stands for this setting: E. coli NCM3722 delta-clpP, growth: N-lim chemostat, doubling time 6 h.
Where [4] appears, read: E. coli NCM3722 delta-hslV, growth: N-lim chemostat, doubling time 6 h.
Where [5] appears, read: E. coli NCM3722 delta-lon, growth: N-lim chemostat, doubling time 6 h.
Where [6] appears, read: E. coli NCM3722 delta-smpB, growth: N-lim chemostat, doubling time 6 h.
The mark [7] stands for this setting: wild type E. coli NCM3722, growth: C-lim chemostat, doubling time 6 h.
[8] abbreviates: wild type E. coli NCM3722, growth: C-lim chemostat, doubling time 12 h.
[9] abbreviates: wild type E. coli NCM3722, growth: N-lim chemostat, doubling time 6 h.
[10] abbreviates: wild type E. coli NCM3722, growth: N-lim chemostat, doubling time 12 h.
[11] abbreviates: wild type E. coli NCM3722, growth: P-lim chemostat, doubling time 6 h.
[12] abbreviates: wild type E. coli NCM3722, growth: C-lim chemostat, doubling time 3 h.

± gives the standard deviation of the averaged measurements.

Take “MSFTRRKFVLGMGTVIFFTGSASSLLANTRQEKEVRYAMIHDESRCNGCNICARACRKTNHVPAQGSRLSIAHIPVTDNDNETQYHFFRQSCQHCEDAPCIDVCPTGASWRDEQGIVRVEKSQCIGCSYCIGACPYQVRYLNPVTKVADKCDFCAESRLAKGFPPICVSACPEHALIFGREDSPEIQAWLQQNKYYQYQLPGAGKPHLYRRFGQHLIKKENV”: the “total protein half-life in vivo” value by setting is: under setting [1], 4.71 ± 0.073 h; under setting [2], 15.8 h.

On to “MKTDTPSLETPQAARLRRRQLIRQLLERDKTPLAILFMAAVVGTLVGLAAVAFDKGVAWLQNQRMGALVHTADNYPLLLTVAFLCSAVLAMFGYFLVRKYAPEAGGSGIPEIEGALEDQRPVRWWRVLPVKFFGGLGTLGGGMVLGREGPTVQIGGNIGRMVLDIFRLKGDEARHTLLATGAAAGLAAAFNAPLAGILFIIEEMRPQFRYTLISIKAVFIGVIMSTIMYRIFNHEVALIDVGKLSDAPLNTLWLYLILGIIFGIFGPIFNKWVLGMQDLLHRVHGGNITKWVLMGGAIGGLCGLLGFVAPATSGGGFNLIPIATAGNFSMGMLVFIFVARVITTLLCFSSGAPGGIFAPMLALGTVLGTAFGMVAVELFPQYHLEAGTFAIAGMGALLAASIRAPLTGIILVLEMTDNYQLILPMIITGLGATLLAQFTGGKPLYSAILARTLAKQEAEQLARSKAASASENT”, for which the “total protein half-life in vivo” value reads like this: under setting [1], 6.2 ± 0.78 h; under setting [3], 6.38 h; under setting [4], 6.54 ± 0.83 h; under setting [5], 6.03 h; under setting [6], 5.82 ± 0.66 h; under setting [7], 5.8 ± 0.28 h. Moreover, the “total protein half-life in vivo” value came to 13.2 ± 3.7 h under setting [8]; 6.08 ± 0.083 h under setting [9]; 11.3 h under setting [10]; 6.1 ± 0.11 h under setting [11]; 11.3 ± 0.43 h under setting [2].

Regarding “MPIYQIDGLTPVVPEESFVHPTAVLIGDVILGKGVYVGPNASLRGDFGRIVVKDGANIQDNCVMHGFPEQDTVVGEDGHIGHSAILHGCIIRRNALVGMNAVVMDGAVIGENSIVGASAFVKAKAEMPANYLIVGSPAKAIRELSEQELAWKKQGTHEYQVLVTRCKQTLHQVEPLREIEPGRKRLVFDENLRPKQ”, the “total protein half-life in vivo” value stood at 5.05 ± 0.96 h under setting [1]; 4.12 ± 0.18 h under setting [3]; 4.15 ± 0.16 h under setting [4]; 5.43 ± 0.8 h under setting [5]; 3.9 ± 0.21 h under setting [6]; 3.49 ± 0.39 h under setting [12]. Besides, the “total protein half-life in vivo” value was found to be 11.6 ± 2.7 h under setting [8]; 4.19 ± 0.87 h under setting [9]; 6.81 h under setting [10]; 5.81 ± 0.34 h under setting [11]; 12.9 ± 0.92 h under setting [2].

Turning to “MSRKQLALFEPTLVVQALKEAVKKLNPQAQWRNPVMFIVWIGSLLTTCISIAMASGAMPGNALFSAAISGWLWITVLFANFAEALAEGRSKAQANSLKGVKKTAFARKLREPKYGAAADKVPADQLRKGDIVLVEAGDIIPCDGEVIEGGASVDESAITGESAPVIRESGGDFASVTGGTRILSDWLVIECSVNPGETFLDRMIAMVEGAQRRKTPNEIALTILLIALTIVFLLATATLWPFSAWGGNAVSVTVLVALLVCLIPTTIGGLLSAIGVAGMSRMLGANVIATSGRAVEAAGDVDVLLLDKTGTITLGNRQASEFIPAQGVDEKTLADAAQLASLADETPEGRSIVILAKQRFNLRERDVQSLHATFVPFTAQSRMSGINIDNRMIRKGSVDAIRRHVEANGGHFPTDVDQKVDQVARQGATPLVVVEGSRVLGVIALKDIVKGGIKERFAQLRKMGIKTVMITGDNRLTAAAIAAEAGVDDFLAEATPEAKLALIRQYQAEGRLVAMTGDGTNDAPALAQADVAVAMNSGTQAAKEAGNMVDLDSNPTKLIEVVHIGKQMLMTRGSLTTFSIANDVAKYFAIIPAAFAATYPQLNALNIMCLHSPDSAILSAVIFNALIIVFLIPLALKGVSYKPLTASAMLRRNLWIYGLGGLLVPFIGIKVIDLLLTVCGLV”, the “total protein half-life in vivo” value by setting is: under setting [3], 5.05 h; under setting [4], 5.02 h; under setting [5], 6.41 h; under setting [6], 3.79 h; under setting [12], 2.79 h; under setting [8], 11.5 h. The “total protein half-life in vivo” value stood at 7.13 ± 1.7 h under setting [10], 7.01 ± 1.2 h under setting [11] and 10.4 ± 0.27 h under setting [2].

Take “MMEGQQHGEQLKRGLKNRHIQLIALGGAIGTGLFLGSASVIQSAGPGIILGYAIAGFIAFLIMRQLGEMVVEEPVAGSFSHFAYKYWGSFAGFASGWNYWVLYVLVAMAELTAVGKYIQFWYPEIPTWVSAAVFFVVINAINLTNVKVFGEMEFWFAIIKVIAVVAMIIFGGWLLFSGNGGPQATVSNLWDQGGFLPHGFTGLVMMMAIIMFSFGGLELVGITAAEADNPEQSIPKATNQVIYRILIFYIGSLAVLLSLMPWTRVTADTSPFVLIFHELGDTFVANALNIVVLTAALSVYNSCVYCNSRMLFGLAQQGNAPKALASVDKRGVPVNTILVSALVTALCVLINYLAPESAFGLLMALVVSALVINWAMISLAHMKFRRAKQEQGVVTRFPALLYPLGNWICLLFMAAVLVIMLMTPGMAISVYLIPVWLIVLGIGYLFKEKTAKAVKAH”: the “total protein half-life in vivo” value by setting is: under setting [1], 5.89 ± 0.35 h; under setting [3], 4.94 ± 0.16 h; under setting [4], 5.65 h; under setting [5], 4.684 ± 0.041 h; under setting [6], 5.14 ± 0.68 h; under setting [12], 2.98 h. The “total protein half-life in vivo” value is, setting by setting: under setting [7], 5.81 ± 0.44 h; under setting [8], 11.914 ± 0.0083 h; under setting [9], 5.68 ± 1.1 h; under setting [10], 9.07 ± 0.36 h; under setting [11], 5.39 ± 0.41 h; under setting [2], 10.1 ± 1.7 h.
